# Laboratory results as given in patent publication US12648996B2, “RNA aptamers and uses thereof” (UNIVERSITY OF MIAMI, priority 2019, dated 2026).
# T1: annexin A4 (ANXA4) (Mus musculus, UniProt P97429)
# T1 construct: purchased myBiosource
# T1 sequence (P97429 1-319): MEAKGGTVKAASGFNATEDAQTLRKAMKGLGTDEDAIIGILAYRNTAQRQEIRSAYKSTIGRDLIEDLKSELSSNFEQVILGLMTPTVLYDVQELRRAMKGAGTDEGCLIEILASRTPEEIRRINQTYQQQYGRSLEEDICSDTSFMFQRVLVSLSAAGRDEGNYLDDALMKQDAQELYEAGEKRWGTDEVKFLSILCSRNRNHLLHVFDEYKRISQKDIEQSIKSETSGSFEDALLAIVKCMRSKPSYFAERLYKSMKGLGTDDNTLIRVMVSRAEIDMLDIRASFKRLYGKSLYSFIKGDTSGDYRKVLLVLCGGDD
# B1: aptamer 11: 2'Fluoro-RNA aptamer, SEQ ID NO: 11, specific for tumor infiltrating myeloid cells; ligand vimentin (nucleic acid)
# chain: GGAGGACGAUGCGGGGAAGCAACACUUAGUCGCGAUUGAUACGUGCGCAGUCAUCAGACGACUCGCUGAGGAUCCGAGA
# modifications: 2'-fluoro modified RNA, modified positions not given here, Cy3-labelled for binding assays
# notes: ligand vimentin
# B2: aptamer 6: 2'Fluoro-RNA aptamer, SEQ ID NO: 6, specific for tumor infiltrating myeloid cells (nucleic acid)
# chain: GGAGGACGAUGCGGCAGGUGCGGGAUCUAAUGCGUAGACAGCCAUAUACUGACACAGACGACUCGCUGAGGAUCCGAGA
# modifications: 2'-fluoro modified RNA, modified positions not given here, Cy3-labelled for binding assays
# B3: aptamer 3: 2'Fluoro-RNA aptamer, SEQ ID NO: 3, specific for tumor infiltrating myeloid cells; ligand ANXA4 (nucleic acid)
# chain: GGAGGACGAUGCGGAUUACCAACUUGAACGCCGAGAGUGUGGUCACGUGUUCUGCAGACGACUCGCUGAGGAUCCGAGA
# modifications: 2'-fluoro modified RNA, modified positions not given here, Cy3-labelled for binding assays
# notes: ligand ANXA4
# B4: aptamer 14: 2'Fluoro-RNA aptamer, SEQ ID NO: 14, specific for tumor infiltrating myeloid cells (nucleic acid)
# chain: GGAGGACGAUGCGGUGUACACUGAUUGCCUUUGUGUUAUGAGCGACAGAUCUGCCAGACGACUCGCUGAGGAUCCGAGA
# modifications: 2'-fluoro modified RNA, modified positions not given here, Cy3-labelled for binding assays
# Assays:
# 4T1 mammary carcinoma = assay: Therapeutic efficacy and toxicity in 4T1 bearing BALB/c mice; assay type: in vivo, mouse
# Experimental: FIGS. 7A-7C. TIMC-specific aptamers increase doxorubicin therapeutic index. […] Treatment was repeated 2 and 6 days later. […] Weight loss as measure of toxicity is reported. […] Survival was monitored.
# Aptamer-Doxorubicin treatment: Aptamer-doxorubicin was prepared by making DNA template with the appropriate aptamer followed by a GC-rich primer sequence downstream (GC rich Sul3′, FIG. 11. From this template, RNA was transcribed and purified as described above. Doxorubicin (Sigma) was mixed with the RNA sequence as needed. Doxil (ALZA corporation) was purchased through the University of Miami pharmacy.
# BALB/c mice were injected IV with the 4T1 luciferase thy1.1 tumor cell line. Treatment was started when tumors reached 5 mm of diameter and repeated 2 and 6 days later. Tumor growth and mice weight was reported. Mice were evaluated at least 3 times a week and humanely euthanized when tumor size index reached 150 mm^2 or if they lose >20% of initial weight due to chemotherapy or tumor growth in compliance with the IACUC policy and animal protocol. Data are expressed as tumor size index defined as the product of the main diameter with the perpendicular one.
# Next, the therapeutic efficacies of doxorubicin delivered by TIMC-specific aptamers was compared by PEGylated liposomes (Doxil, the first clinically available nanoparticle that became the gold standard for doxorubicin treatment (34, 35)), and as unconjugated molecules. Briefly, 4T1 bearing BALB/c mice were treated with unconjugated DOX at dose high, or low dose, or with low doses of DOX conjugated to the TIMC-specific aptamer, or with Doxil (low dose—0.35 mg/kg). Treatment was repeated 2 and 6 days later. As additional controls, mice were treated with unconjugated aptamers, irrelevant aptamers conjugated with doxorubicin, or left untreated.
# [1] = test system: tumor infiltrating myeloid cells (4T1 tumor); assay: Flow cytometry of Cy3-labelled monoclonal aptamers on single cell suspensions from tumor and spleen of 4T1 bearing mice; assay type: cell-based, mouse; conditions: tumor and spleen of 4T1 challenged mice; splenic MDSCs and CD11b- cells p>0.05
# From the text: FIGS. 2A-C. […] FIG. 2A) Single cell suspensions from spleens and tumors of mice pooled from 3 mice bearing the 4T1 tumor (0.5 cm in diameter) were labelled with antibodies against CD11b, Ly6C, Ly6G and the 15 Cy3-labelled monoclonal aptamers identified by APTANI. Data derived from n=5 biological replica and derived from n=2 independent experiments. Aptamers 3 (SEQ ID NO: 3), 6 (SEQ ID NO: 6), 11 (SEQ ID NO: 11), and 14 (SEQ ID NO: 14) were chosen for further analysis and are in bold. *=P<0.001 by one-way ANOVA and post-hoc Holm-Sidak comparisons versus irrelevant aptamer. […] FIG. 2B) Secondary structure of aptamers 3 (SEQ ID NO: 3), 6 (SEQ ID NO: 6), 11 (SEQ ID NO: 11), and 14 (SEQ ID NO: 14). Binding motifs identified by APTANI are underlined in black. Fluorinated nucleotides are highlighted in gray. FIG. 2C) An equimolar mixture of the aptamers increases the specificity for tumor infiltrating myeloid cells. Pooled single cell suspension of tumor or spleen from 4T1 bearing mice were labeled with aptamers 3 (SEQ ID NO: 3), 6 (SEQ ID NO: 6), 11 (SEQ ID NO: 11), and 14 (SEQ ID NO: 14), or equimolar mixtures of each aptamer and analyzed by FACS. Data derived from n=3 independent experiments.
# (§1) Flow cytometry: Aptamers were labeled with Cy3 using the Silencer siRNA Labeling Kit—Cy3 (Ambion) and 37 pmoles were used to label 5×10^6 cells unless otherwise specified. In some experiments biotinylated aptamers were labelled with streptavidin conjugated with Alexa Fluor 647 or Alexa Fluor 750 and purified from unbound aptamer by Ultra-4 centrifugal filters, […] (Millipore).
# (§2) Dead cells were excluded by the analysis by using 4′,6′-diamidino-2-phenylindole (DAPI; Sigma) or Live/Dead dye (Invitrogen). Samples were read on a LSR2 equipped with 405 nm, 488 nm, 532 nm, and 635 nm lasers (BD Bioscience). Data were analyzed using FCS6 express software (Denovo-Software).
# These 15 aptamers were tested by flow cytometry against single cell suspensions from tumor and spleen of mice challenged with the 4T1 tumor (FIG. 2A).
# Next, whether an equimolar mixture of aptamers 3, 6, 11 and 14 was more efficient in recognizing TIMC as compared to each individual aptamer was evaluated.
# [2] = test system: TIMC from 4T1, CT26, RENCA, B16LU8, MCA203, E0771 tumors; assay: Staining of single cell suspensions from tumor, bone marrow, spleen and lungs in multiple mouse tumor models; assay type: cell-based; conditions: BALB/c (4T1, CT26, RENCA) and C57Bl/6 (B16LU8, MCA203, E0771) tumor models
# From the text: as §1, §2
# The binding properties of monoclonal RNA aptamers 3, 6, 11 and 14 were evaluated in other tumor models. Aptamers 3, 6, 11, or 14 single cell suspensions were stained from tumor, bone marrow, spleen, and lungs of BALB/c mice bearing the 4T1 mammary carcinoma, the CT26 colon carcinoma, or the RENCA renal carcinoma. Similar analysis was performed on single cell suspensions from C57Bl/6 mice bearing B16LU8 melanoma, MCA203 fibrosarcoma or E0771 mammary carcinoma.
# [3] = Aptamer-based immunoprecipitation and mass spectrometry (target identification); conditions: immunoprecipitation, mass spectrometry
# Experimental: (§3) FIG. 4A-4E. Characteristics of aptamers that preferentially recognize tumor infiltrating myeloid cells. FIG. 4A) Affinity of the aptamers for IL4 treated MSC2 cells was determined by FACS. Putative targets (ANXA4 and VIM) were identified via aptamer-based immunoprecipitation, SDS page, and mass spec analysis. Kds against ligands was determined by FACS against recombinant protein conjugated to epoxy beads. FIG. 4B) Epoxy beads conjugated with ANXA4 or irrelevant protein were stained with Cy3-labelled aptamer 3 or irrelevant aptamer and analyzed by FACS. FIG. 4C) Epoxy beads conjugated with vimentin or irrelevant protein were stained with Cy3-labelled aptamer 11 or irrelevant aptamer and analyzed by FACS. FIG. 4D) ANXA4 competitive assay. 5×10^5 IL4 treated MSC2 were stained with aptamer 3 in the presence or in the absence of recombinant ANXA4. FIG. 4E) MCS2 cells were transfected via the 4PD nanoparticle with shRNA against vimentin or with a scrambled shRNA. 4 days later cells were stained with Cy3-labelled aptamer 11 and DAPI. Pa=One-way ANOVA p value. Data derived from n=2 independent experiments.
# The specificity of aptamer 3 for ANXA4 and aptamer 11 for vimentin were tested by competitive experiments (FIG. 4D) and with validated shRNA (29) (FIG. 4E), respectively.
# vimentin (VIM) = biological target: T2, vimentin (VIM) (Mus musculus, UniProt P20152); assay: FACS of epoxy beads conjugated with recombinant vimentin; assay type: binding; conditions: beads loaded with relevant or irrelevant recombinant proteins
# T2 construct: purchased myBiosource
# Experimental: as §3
# (§4) FIG. 8A and FIG. 8B. Affinity of aptamers #3 (SEQ ID NO: 3), #6 (SEQ ID NO: 6), #11 (SEQ ID NO: 11) and #14 (SEQ ID NO: 14) for IL4 treated MSC2 or their putative ligand. […] Binding was evaluated by FACS. […] Binding was evaluated by FACS. […]
# [4] = test system: 4T1 tumors and tissues arrays from naïve mice; assay: Immunofluorescence microscopy on 4T1 tumors and tissues arrays from naïve mice; set-up: species or system mouse
# Experimental: Immunofluorescence microscopy and Image cytometry: Fresh frozen tissue and tissues microarrays (AMSBIO) were fixed in 10% neutral-buffered formalin (BDH) for 15′ at RT, incubated with dextran sulfate sodium/PBS (1:2 m/V—Pharmacia biotech) for 30′ and washed with PBS. Tissues were then stained with Cy3-labelled aptamer (10 ug/ml) in PBS for 30′, masked with 2% BSA, and counterstained with antibodies and/or DAPI.
# Specificity was further evaluated by immunofluorescence microscopy using 4T1 tumors and tissues arrays from naïve mice.
# annexin A4 (ANXA4) = biological target: T1, annexin A4 (ANXA4); assay: FACS of epoxy beads conjugated with recombinant ANXA4; assay type: binding; conditions: beads loaded with relevant or irrelevant recombinant proteins
# Experimental: as §3, §4
# T2 sequence (P20152 whole entry): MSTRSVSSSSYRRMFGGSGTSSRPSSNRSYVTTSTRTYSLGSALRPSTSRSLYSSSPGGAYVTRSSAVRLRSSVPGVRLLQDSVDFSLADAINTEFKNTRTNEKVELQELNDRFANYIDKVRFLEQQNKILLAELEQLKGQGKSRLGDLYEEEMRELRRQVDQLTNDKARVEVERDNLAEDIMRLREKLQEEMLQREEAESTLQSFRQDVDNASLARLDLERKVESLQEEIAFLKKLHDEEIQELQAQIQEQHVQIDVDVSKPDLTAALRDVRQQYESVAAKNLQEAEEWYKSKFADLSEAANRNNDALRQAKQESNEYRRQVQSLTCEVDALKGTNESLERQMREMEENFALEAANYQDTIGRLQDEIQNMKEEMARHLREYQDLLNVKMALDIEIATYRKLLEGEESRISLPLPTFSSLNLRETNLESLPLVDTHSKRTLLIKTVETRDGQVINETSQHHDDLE
Molecule,"toxicity (body weight loss) (4T1 mammary carcinoma; free DOX high dose 3.5 mg/kg, DOX-aptamer 0.35 mg/kg)",treatment related mortality (4T1 mammary carcinoma; high doses of free doxorubicin) [%],"anti-tumor effect (4T1 mammary carcinoma; i.v., repeated 2 and 6 days later, free DOX high dose 3.5 mg/kg, Doxil and DOX-aptamer low dose 0.35 mg/kg)",specificity for tumor infiltrating vs splenic myeloid cells [1],recognition of TIMC [2],putative target [3],specificity for vimentin protein (vimentin (VIM)),staining of tissues from naïve mice [4],specificity for annexin protein (annexin A4 (ANXA4))
"COc1cccc2c1C(=O)c1c(O)c3c(c(O)c1C2=O)C[C@@](O)(C(=O)CO)C[C@@H]3O[C@H]1C[C@H](N)[C@H](O)[C@H](C)O1 [free doxorubicin, doxorubicin]",significant body weight loss,15,No significant anti-tumor effect,,,,,,
B1,,,,specific for tumor infiltrating myeloid cells,able to recognize TIMC,vimentin (VIM P20152),confirmed the specificity,,
B2,,,,specific for tumor infiltrating myeloid cells,able to recognize TIMC,No targets have been identified,,showed binding for epithelial cells in the uterus and low binding for pancreatic acinar tissue,
B3,,,,specific for tumor infiltrating myeloid cells,able to recognize TIMC,annexin A4 (ANXA4 isoform X1 P97495),,recognized hepatocytes at low intensity,confirmed the specificity
B4,,,,specific for tumor infiltrating myeloid cells,able to recognize TIMC,No targets have been identified,,"recognized intestinal villi and seems to show a nuclear staining of cerebellum, pancreatic acinar tissue, stomach and spleen",
